Test results as given in patent US20180044422A1 (NEW YORK UNIVERSITY, published 2018).

Assays:
Galectin-4 (Biolegend) = molecular target: T1, Galectin-4 (Biolegend) (Mus musculus (Mouse), UniProt Q8K419 1-326); test: ELISA, plate coated with Galectin-4, Dectin-1 IgG Fc at 2.5 µg/ml (concentration from paragraph 191, not on the sheet), detection with anti-IgG-HRP [cont.) I]
T1 construct: The sentence reads 'recombinant mouse Galectin-9 ..., Galectin-3, or Galectin-4'; whether 'mouse' also applies to Galectin-4 is not clear
T1 sequence: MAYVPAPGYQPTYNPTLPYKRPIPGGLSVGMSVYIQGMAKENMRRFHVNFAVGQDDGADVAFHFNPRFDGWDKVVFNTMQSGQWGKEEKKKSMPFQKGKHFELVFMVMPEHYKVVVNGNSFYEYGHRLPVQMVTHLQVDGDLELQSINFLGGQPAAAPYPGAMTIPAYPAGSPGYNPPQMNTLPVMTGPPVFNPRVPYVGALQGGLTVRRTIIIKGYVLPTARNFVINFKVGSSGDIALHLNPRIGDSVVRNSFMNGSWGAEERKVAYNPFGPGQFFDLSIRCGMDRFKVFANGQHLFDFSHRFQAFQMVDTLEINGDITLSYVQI
Procedure: (§1) To investigate if Galectin-9 can bind with Dectin-1, Protein G-magnet beads (2 ml; Dynabeads) were loaded with Dectin-1 IgG Fc (1 mg) or control IgG Fc before washing and blocking. Subsequently, beads were incubated with recombinant Galectin-9 ([…]; R&D Systems) for 30 min, washed, and stained with PE-conjugated anti-Galectin-9 (Biolegend, San Diego Calif.). Galectin-9 specific staining was determined by flow cytometry. To investigate the interaction between Galectin-9 and Dectin-1 by ELISA, plates (Maxisorp, Nunc, St. Louis, Mo.) were coated with recombinant mouse Galectin-9 ([…]; R&D Systems, Minneapolis, Minn.), Galectin-3, or Galectin-4 (both […]; Biolegend) for 16 hours at 4° C., blocked with 1% BSA/PBS for 1 hour, and incubated with increasing doses of Dectin-1 IgG Fc or control IgG Fc for 2 hours. The Galectin-bound Dectin-1 IgG Fc was detected with anti-IgG-HRP. […] Bead-bound precipitates were resuspended with loading buffer, resolved by SDS-PAGE under reduced conditions for western blotting using mAbs specific for Galectin-9. […] Dectin-1 signaling was measured by detection of secreted embryonic alkaline phosphatase. […] Syk phosphorylation was measured by flow cytometry at 3 hours.

Galectin-3 (Biolegend) = molecular target: T2, Galectin-3 (Biolegend) (Mus musculus (Mouse), UniProt P16110 2-264); test: ELISA, plate coated with Galectin-3, Dectin-1 IgG Fc at 2.5 µg/ml (concentration from paragraph 191, not on the sheet), detection with anti-IgG-HRP [cont.) I]
T2 construct: The sentence reads 'recombinant mouse Galectin-9 ..., Galectin-3, or Galectin-4'; whether 'mouse' also applies to Galectin-3 is not clear
T2 sequence (P16110 2-264 limits assumed): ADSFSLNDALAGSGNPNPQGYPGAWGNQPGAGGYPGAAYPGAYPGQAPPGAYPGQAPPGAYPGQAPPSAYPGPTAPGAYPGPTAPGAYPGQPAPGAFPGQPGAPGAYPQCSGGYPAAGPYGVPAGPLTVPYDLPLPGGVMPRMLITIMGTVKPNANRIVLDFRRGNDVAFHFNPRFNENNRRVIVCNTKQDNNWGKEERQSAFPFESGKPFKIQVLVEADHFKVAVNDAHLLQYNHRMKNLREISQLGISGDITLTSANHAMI
Procedure: as §1

binding result (Galectin-4 (Biolegend)): no binding (tested: 2.5 µg/ml)
binding result (Galectin-3 (Biolegend)): no binding (tested: 2.5 µg/ml)
B1: human IgG Fc-conjugated Dectin-1 fusion protein (murine Dectin-1 IgG Fc; fc-mdec1a, InvivoGen) (Fc fusion, mouse, UniProt Q6QLQ4 69-244, looked up)
chain: EYGHNSGRNPEEKDNFLSRNKENHKPTESSLDEKVAPSKASQTTGGFSQPCLPNWIMHGKSCYLFSFSGNSWYGSKRHCSQLGAHLLKIDNSKEFEFIESQTSSHRINAFWIGLSRNQSEGPWFWEDGSAFFPNSFQVRNTAPQESLLHNCVWIHGSEVYNQICNTSSYSICEKEL
notes: Bought reagent (fc-mdec1a; InvivoGen); also called Dectin-1 Fc; not shown: human IgG Fc
